Tests used:
[1] = target: monkey GPC3-His protein (monkey); test: ELISA, coated monkey GPC3-His, antibody 0.0001 nM
[2] = target: Polypeptide GC3pep of human GPC3 (Ala524-Lys563) (human); test: ELISA, coated GC3pep, antibody 0.0001 nM
[3] = target: human GPC3-His protein (human) (UniProt P51654); test: ELISA, coated human GPC3-His, antibody 100 nM
[4] = target: human GPC3, full length, on cells (human) (UniProt P51654); test: FACS on HepG2 cells
[5] = target: human GPC3, full length, on cells (human) (UniProt P51654); test: FACS on CHO-K1-human GPC3 cells
[6] = target: monkey GPC3-His protein (monkey); test: ELISA, coated monkey GPC3-His, antibody 1 nM
[7] = target: human GPC3, full length, on cells (human) (UniProt P51654); test: FACS on CHO-K1 clone CHOK1-hGPC3.3E9
[8] = target: Polypeptide GC3pep of human GPC3 (Ala524-Lys563) (human); test: ELISA, coated GC3pep, antibody 0.01 nM
[9] = target: murine GPC3-His protein (murine) (UniProt Q8CFZ4); test: ELISA, coated murine GPC3-His, antibody 0.001 nM
[10] = target: human GPC3, full length, on cells (human) (UniProt P51654); test: FACS on CHO-K1 clone CHOK1-hGPC3.2B5
[11] = target: human GPC3-His protein (human) (UniProt P51654); test: ELISA, coated human GPC3-His, antibody 1 nM
[12] = target: human GPC3-His protein (human) (UniProt P51654); test: ELISA, coated human GPC3-His, antibody 0.001 nM
[13] = target: monkey GPC3-His protein (monkey); test: ELISA, coated monkey GPC3-His, antibody 0.0001 nM; remark: listed apart in the source
[14] = target: human GPC3-His protein (human) (UniProt P51654); test: ELISA, coated human GPC3-His, antibody 10 nM
[15] = target: human GPC3, full length, on cells (human) (UniProt P51654); test: FACS on HepG2 cells, control in the row of Y035
[16] = target: human GPC3, full length, on cells (human) (UniProt P51654); test: FACS on HepG2 cells, control in the row of T2-23
[17] = target: monkey GPC3-His protein (monkey); test: ELISA, coated monkey GPC3-His, antibody 10 nM
[18] = target: monkey GPC3-His protein (monkey); test: ELISA, coated monkey GPC3-His, antibody 1 nM; remark: listed apart in the source
[19] = target: murine GPC3-His protein (murine) (UniProt Q8CFZ4); test: ELISA, coated murine GPC3-His, antibody 0.0001 nM
[20] = target: human GPC3-His protein (human) (UniProt P51654); test: ELISA, coated human GPC3-His, antibody 0.1 nM
[21] = target: monkey GPC3-His protein (monkey); test: ELISA, coated monkey GPC3-His, antibody 100 nM
[22] = target: monkey GPC3-His protein (monkey); test: ELISA, coated monkey GPC3-His, antibody 0.001 nM
[23] = target: human GPC3-His protein (human) (UniProt P51654); test: ELISA, coated human GPC3-His, antibody 0.01 nM
[24] = target: monkey GPC3-His protein (monkey); test: ELISA, coated monkey GPC3-His, antibody 10 nM; remark: listed apart in the source
[25] = target: human GPC3-His protein (human) (UniProt P51654); test: ELISA, coated human GPC3-His, antibody 0.0001 nM
[26] = target: monkey GPC3-His protein (monkey); test: ELISA, coated monkey GPC3-His, antibody 0.001 nM; remark: listed apart in the source
[27] = target: human GPC3-His protein (human) (UniProt P51654); test: ELISA, coated human GPC3-His, antibody 10 nM; remark: listed apart in the source
[28] = target: murine GPC3-His protein (murine) (UniProt Q8CFZ4); test: ELISA, coated murine GPC3-His, antibody 0.01 nM
[29] = target: human GPC3-His protein (human) (UniProt P51654); test: ELISA, coated human GPC3-His, antibody 0.0001 nM; remark: listed apart in the source
[30] = target: murine GPC3-His protein (murine) (UniProt Q8CFZ4); test: ELISA, coated murine GPC3-His, antibody 1 nM
[31] = target: Polypeptide GC3pep of human GPC3 (Ala524-Lys563) (human); test: ELISA, coated GC3pep, antibody 0.1 nM
[32] = target: Polypeptide GC3pep of human GPC3 (Ala524-Lys563) (human); test: ELISA, coated GC3pep, antibody 100 nM
[33] = target: human GPC3-His protein (human) (UniProt P51654); test: ELISA, coated human GPC3-His, antibody 100 nM; remark: listed apart in the source
[34] = target: murine GPC3-His protein (murine) (UniProt Q8CFZ4); test: ELISA, coated murine GPC3-His, antibody 0.0001 nM; remark: listed apart in the source
[35] = target: Polypeptide GC3pep of human GPC3 (Ala524-Lys563) (human); test: ELISA, coated GC3pep, antibody 10 nM
[36] = target: human GPC3-His protein (human) (UniProt P51654); test: ELISA, coated human GPC3-His, antibody 0.1 nM; remark: listed apart in the source
[37] = target: monkey GPC3-His protein (monkey); test: ELISA, coated monkey GPC3-His, antibody 0.01 nM
[38] = target: human GPC3-His protein (human) (UniProt P51654); test: ELISA, coated human GPC3-His, antibody 1 nM; remark: listed apart in the source
[39] = target: murine GPC3-His protein (murine) (UniProt Q8CFZ4); test: ELISA, coated murine GPC3-His, antibody 100 nM
[40] = target: human GPC3, full length, on cells (human) (UniProt P51654); test: FACS on CHO-K1 clone CHOK1-hGPC3.1C3
[41] = target: human GPC3-His protein (human) (UniProt P51654); test: ELISA, coated human GPC3-His, antibody 0.01 nM; remark: listed apart in the source
[42] = target: monkey GPC3, full length, on HEK293T cells (monkey); test: FACS on HEK293T-monkey GPC3 cells
[43] = target: murine GPC3-His protein (murine) (UniProt Q8CFZ4); test: ELISA, coated murine GPC3-His, antibody 10 nM
[44] = target: Polypeptide GC3pep of human GPC3 (Ala524-Lys563) (human); test: ELISA, coated GC3pep, antibody 0.001 nM
[45] = target: Polypeptide GC3pep of human GPC3 (Ala524-Lys563) (human); test: ELISA, coated GC3pep, antibody 100 nM; remark: listed apart in the source
[46] = target: monkey GPC3-His protein (monkey); test: ELISA, coated monkey GPC3-His, antibody 100 nM; remark: listed apart in the source
[47] = target: murine GPC3-His protein (murine) (UniProt Q8CFZ4); test: ELISA, coated murine GPC3-His, antibody 0.1 nM
[48] = target: monkey GPC3-His protein (monkey); test: ELISA, coated monkey GPC3-His, antibody 0.01 nM; remark: listed apart in the source
[49] = target: murine GPC3-His protein (murine) (UniProt Q8CFZ4); test: ELISA, coated murine GPC3-His, antibody 10 nM; remark: listed apart in the source
[50] = target: murine GPC3-His protein (murine) (UniProt Q8CFZ4); test: ELISA, coated murine GPC3-His, antibody 0.01 nM; remark: listed apart in the source
[51] = target: Polypeptide GC3pep of human GPC3 (Ala524-Lys563) (human); test: ELISA, coated GC3pep, antibody 1 nM
[52] = target: monkey GPC3-His protein (monkey); test: ELISA, coated monkey GPC3-His, antibody 0.1 nM
[53] = target: murine GPC3-His protein (murine) (UniProt Q8CFZ4); test: ELISA, coated murine GPC3-His, antibody 0.001 nM; remark: listed apart in the source
[54] = target: monkey GPC3-His protein (monkey); test: ELISA, coated monkey GPC3-His, antibody 0.1 nM; remark: listed apart in the source
[55] = target: human GPC3-His protein (human) (UniProt P51654); test: ELISA, coated human GPC3-His, antibody 0.001 nM; remark: listed apart in the source
[56] = target: murine GPC3-His protein (murine) (UniProt Q8CFZ4); test: ELISA, coated murine GPC3-His, antibody 100 nM; remark: listed apart in the source

UniProt Q8CFZ4, sequence (Q8CFZ4 25-558 limits assumed): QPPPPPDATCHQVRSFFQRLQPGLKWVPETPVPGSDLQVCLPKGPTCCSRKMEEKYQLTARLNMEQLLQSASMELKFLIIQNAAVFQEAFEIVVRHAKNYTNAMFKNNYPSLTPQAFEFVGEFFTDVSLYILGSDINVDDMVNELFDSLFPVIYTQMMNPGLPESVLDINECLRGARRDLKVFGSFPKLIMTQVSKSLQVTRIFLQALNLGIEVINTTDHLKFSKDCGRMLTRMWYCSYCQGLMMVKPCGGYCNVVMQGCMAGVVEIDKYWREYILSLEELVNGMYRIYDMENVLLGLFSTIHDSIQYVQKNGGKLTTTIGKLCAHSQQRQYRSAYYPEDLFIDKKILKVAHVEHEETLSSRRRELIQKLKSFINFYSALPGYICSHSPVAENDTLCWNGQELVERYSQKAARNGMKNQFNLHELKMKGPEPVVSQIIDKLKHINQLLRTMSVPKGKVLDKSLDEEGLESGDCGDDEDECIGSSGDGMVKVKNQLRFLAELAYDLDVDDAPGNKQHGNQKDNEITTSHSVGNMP
Polypeptide GC3pep of human GPC3 (Ala524-Lys563) (human), sequence (peptide, as listed by the source): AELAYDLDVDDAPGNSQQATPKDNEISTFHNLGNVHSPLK

human IgG1 subtype control (antibody)
OD450 [1]: 0.048
OD450 [2]: 0.06
OD450 [3]: 0.072
Max MFI [4]: 110
Max MFI [5]: 82
OD450 [6]: 0.044
Mean fluorescence intensity of cells [7]: 19.3
OD450 [8]: 0.046
OD450 [9]: 0.051
Mean fluorescence intensity of cells [10]: 19.3
OD450 [11]: 0.048
OD450 [12]: 0.048
OD450 [13]: 0.05
OD450 [14]: 0.1
Mean fluorescence intensity of cells [15]: 137
Mean fluorescence intensity of cells [16]: 137
OD450 [17]: 0.047
OD450 [18]: 0.05
OD450 [19]: 0.05
OD450 [20]: 0.05
OD450 [21]: 0.19
OD450 [22]: 0.04
OD450 [23]: 0.048
OD450 [24]: 0.08
OD450 [25]: 0.047
OD450 [26]: 0.044
OD450 [27]: 0.05
OD450 [28]: 0.05
OD450 [29]: 0.09
OD450 [30]: 0.05
OD450 [31]: 0.04
OD450 [32]: 0.069
OD450 [33]: 0.09
OD450 [34]: 0.049
OD450 [35]: 0.04
OD450 [36]: 0.09
OD450 [37]: 0.05
OD450 [38]: 0.09
OD450 [39]: 0.08
Mean fluorescence intensity of cells [40]: 19.3
OD450 [41]: 0.1
Max MFI [42]: 95
OD450 [43]: 0.055
OD450 [44]: 0.046
OD450 [45]: 0.06
OD450 [46]: 0.056
OD450 [47]: 0.05
OD450 [48]: 0.044
OD450 [49]: 0.07
OD450 [50]: 0.052
OD450 [51]: 0.04
OD450 [52]: 0.04
OD450 [53]: 0.05
OD450 [54]: 0.045
OD450 [55]: 0.09
OD450 [56]: 0.105
